A word on the stoichiometry N: it is the number of molecules, sites or subunits per partner or assembly.

The labels stand for the following.
B1: SmsB from Methanocaldococcus jannaschii (natural protein)
chain: MSIKEELMEIIEAIKYTSEKPEEIVHGKGPRIIVKESRIIDVQGDEGIILEGKEEDGKIKAKIIVKKGYKFKYPIHMCFGITEENISQIIDVEIILEEDSSISLMSHCSFPKGKGIKHIMNGIIKIGKNAKFSYNEFHYHGMDGDILVKPTVKVEIDEGGIYISNFTLTKGRIGTLDIEQEIIAKKDAIIDITTRTYAIKEDVVKVNEVVKLNGENAKCIIKSRGAAMDNSKISLKLKIEGNAPYSKGHIDCAEIVKGNAEVESIPIVVVRDDKARITHEAAIGSVDKKQLETLMAKGLDEDEATEIIVKGMIGDL
notes: SmsB, Methanocaldococcus jannaschii, subunit of the SMS system; Mainly a homodimer in solution; two copies in SmsC2B2; also called SmsB2; source: E. coli MG1655(DE3) (FBE682), purified (HisTrap, TEV protease, Ni-NTA, SEC); not shown: His6, N-terminal, cleaved

For data set [1], the target named is T1, SmsC (Methanocaldococcus jannaschii, UniProt Q60350).
T1 sequence (Q60350 1-250): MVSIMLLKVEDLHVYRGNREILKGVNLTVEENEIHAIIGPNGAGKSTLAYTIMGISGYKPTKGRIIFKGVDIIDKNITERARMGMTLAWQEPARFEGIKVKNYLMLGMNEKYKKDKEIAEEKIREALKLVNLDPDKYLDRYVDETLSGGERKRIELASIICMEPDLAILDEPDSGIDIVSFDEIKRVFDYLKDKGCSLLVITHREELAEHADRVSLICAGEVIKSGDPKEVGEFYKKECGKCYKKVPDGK
The data set is described as follows: ligand-induced dimerization by size exclusion chromatography; blocks [Fe-S] reconstitution on SmsC2B2. It is filed as binding. Further details: gene MJ0035; SmsC, His-tag removed. (Size exclusion chromatography separates by hydrodynamic size, large species first.)

For data set [2], the target named is T1, SmsC. The data set is described as follows: enzyme-coupled ATPase assay (PK/LDH) on purified protein. The format is biochemical. On the set-up: gene MJ0035; SmsC alone and SmsC2B2 complex.
Data set [3] concerns the molecule itself. Put plainly: SEC; calibrated Hiload 600 Superdex 200, 50 mM Tris-HCl pH 7.8, 100 mM NaCl, 1 mM DTT; no nucleotide; for the complex SmsB2 and SmsC were mixed in molar amounts corresponding to SmsC2B2 and incubated overnight.
Data set [4] concerns the molecule itself. Put plainly: cryo-EM structure; chemically reconstituted [4Fe-4S]-bound SmsC2B2, prepared under anoxic conditions and quickly vitrified (9H78, EMD-51913).
Data set [5] addresses B1. The data set is described as follows: SEC; calibrated Hiload 600 Superdex 200, 50 mM Tris-HCl pH 7.8, 100 mM NaCl, 1 mM DTT; no nucleotide; for the complex SmsB2 and SmsC were mixed in molar amounts corresponding to SmsC2B2 and incubated overnight. Conditions: both partners purified.

For `Nc1ncnc2c1ncn2[C@@H]1O[C@H](CO[P@](=O)(O)O[P@](=O)(O)CP(=O)(O)O)[C@@H](O)[C@H]1O` [AMP-PCP], on SmsC [1], the “ligand-induced dimerization by size exclusion chromatography; blocks [Fe-S] reco” value was “Incubation of SmsC with excess of adenosine-5′-[(β,γ)-methyleno]triphosphate (AMP-PCP) led to SmsC dimer formation”.

In the case of `Nc1ncnc2c1ncn2[C@@H]1O[C@H](COP(=O)(O)OP(=O)(O)OP(=O)(O)O)[C@@H](O)[C@H]1O` [ATP], the “enzyme-coupled ATPase assay (PK/LDH) on purified protein” value at SmsC [2] is 0.98 min⁻¹ (kcat).

Take B1: in data set [3], the “stoichiometry N” value came out at 2.

B2: SmsC from Methanocaldococcus jannaschii (enzyme)
chain: MVSIMLLKVEDLHVYRGNREILKGVNLTVEENEIHAIIGPNGAGKSTLAYTIMGISGYKPTKGRIIFKGVDIIDKNITERARMGMTLAWQEPARFEGIKVKNYLMLGMNEKYKKDKEIAEEKIREALKLVNLDPDKYLDRYVDETLSGGERKRIELASIICMEPDLAILDEPDSGIDIVSFDEIKRVFDYLKDKGCSLLVITHREELAEHADRVSLICAGEVIKSGDPKEVGEFYKKECGKCYKKVPDGK
notes: SmsC, Methanocaldococcus jannaschii, ABC ATPase subunit of the SMS system; Monomer in solution without nucleotide; two copies in SmsC2B2; In the cryo-EM sample one of the two copies carries a [4Fe-4S] cluster; also called apo-SmsC; source: E. coli MG1655(DE3) (FBE682), purified (HisTrap, TEV protease, Ni-NTA, SEC); not shown: His6, N-terminal, cleaved
For the molecule B2, the binding result in data set [4] and in data set [5] was “binds” each time.

These data come from article PMC12192291, “Ancestral [Fe-S] biogenesis system SMS has a unique mechanism of cluster assembly and sulfur utilization” (PLOS Biology, 2025).
